Test results reported in patent publication US20240343803A1 (SHANDONG SIMCERE BIOPHARMACEUTICAL, published 2024).

B1: PVRIG-A75 (Fc fusion)
chain: QLQLVESGGGLVQSGGSLRLSCAASGRTRSMYVMGWFRQAPGKEREFVGRIKWSGDTTYTSYADFVKGRFTLYGNQARNTVYLQMNSLKPEDTAVYSCAASKFPVSGVPEHYDYWGQGTQVTVSS
notes: heavy chain antibody VHH-hinge-CH2-CH3, human IgG1 constant part; not shown: human IgG1 hinge-CH2-CH3
B2: PVRIG-A60 (Fc fusion)
chain: QVQLVESGGGLVQSGGSLRLSCAASGRTRSMYVMGWFRQAPGKEREFVGRIKWSGDTTYTSYADFVKGRFTLYGNQARNTVYLQMNSLKPEDAAVYYCNLRRLDGVNYWGKGTLVTVSS
notes: as for B1
B3: PVRIG-A15 (Fc fusion)
chain: QVQLVESGGGLVQAGGSLRLSCVASGRTFSANTMAWFRQAPGKEREFVAYTRWTDDNTDYASYADFVKGRFTAFRDNTRNTMYLQMNRLRPEDTAVYYCAAATTRGTYYSAGDYNSWGQGTQVTVSS
notes: as for B1
B4: TIGIT-006-H1L3 (antibody, V domains shown)
VH: EVQLQESGPGLVKPSETLSLTCAVSGYSITSDYWNWIRQPPGKGLEWIGYISYSGRTYYNPSLKSRVTISRDTSKNQFSLKLSSVTAADTAVYYCARGDYSNYGGAMYDWGQGTTVTVSS
VL: DIVMTQSPDSLAVSLGERATINCRASQGVSTTIAWYQQKPGQSPKLLIYSASYRYTGVPRFSGSGSGTDFTLTISSLQAEDVAVYYCQQYYSSPFTFGGGTKVEIK
notes: Humanized anti-TIGIT antibody
B5: TIGIT-006-H3L3 (antibody, V domains shown)
VH: EVQLQESGPGLVKPSETLSLTCAVSGYSMTSDYWNWIRQPPGKKLEWIGYISYSGRTYYNPSLKSRVTISRDTSKNQFSLKLSSVTAADTAVYYCARGDYSNYGGAMYDWGQGTTVTVSS
VL: DIVMTQSPDSLAVSLGERATINCRASQGVSTTIAWYQQKPGQSPKLLIYSASYRYTGVPRFSGSGSGTDFTLTISSLQAEDVAVYYCQQYYSSPFTFGGGTKVEIK
notes: Humanized anti-TIGIT antibody
B6: PVRIG-A30 (Fc fusion)
chain: QVQLVESGGGLVQPGGSLRLSCAASGRTDSMNVMGWFRRAPGKEREFVARIKWNGDTTYTAYADFLKGRFTLYGAVARNRVYLQMNSLQPEDTAVYYCAAGEVSGSSYSPDYGMHYWGKGTLVTVSS
notes: as for B1

Columns and labels:
[1] = molecular target: T1, human PVRIG-his (AcroBiosystems, Cat NO. PVG-H52H4) (human, UniProt Q6DKI7 41-171, limits assumed); test: SPR (BIAcore), antibody captured on Protein A chip, human PVRIG-His analyte
T1 construct: also called human PVRIG protein
T1 sequence (looked up): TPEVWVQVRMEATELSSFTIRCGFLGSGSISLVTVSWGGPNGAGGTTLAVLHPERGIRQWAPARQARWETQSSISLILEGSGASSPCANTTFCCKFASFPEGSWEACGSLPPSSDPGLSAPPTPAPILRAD
Procedure: Biacore was used to detect the specific binding between anti-PVRIG antibody and human PVRIG protein. Protein A chip was used in the BIAcore assay. The time required for the chip to capture the diluted antibody and saturate the binding antigen to reach Rₘₐₓ (Maximum binding capacity, 50 RU) was measured by manual run. […] The affinity of antibody for antigen was measured by multi-cycle kinetics. In each cycle, the antibodies were injected prior to the injection of gradient concentraions of PVRIG proteins allowing the occurrence of antibody-antigen association and dissociation After each cycle, the Protein A chip was regenerated by Glycine, pH 1.5 (to remove the proteins on the chip). The affinity of antibody for antigen was calculated by BIAcore T200 analysis software.

[2] = molecular target: T2, human PVRIG-mFc protein (Acro, PVG-H5253) (human, UniProt Q6DKI7 41-171, limits assumed); test: FACS competition, PVRIG-mFc binding to CHO-K1-CD112 cells, competitor CD112 on cells
T2 construct: bought protein
T2 sequence (looked up): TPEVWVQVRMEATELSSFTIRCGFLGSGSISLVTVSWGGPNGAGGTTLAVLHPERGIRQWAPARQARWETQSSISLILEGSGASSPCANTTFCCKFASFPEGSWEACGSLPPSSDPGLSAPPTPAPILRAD
Procedure: A working solution of human PVRIG-mFc protein (Acro, PVG-H5253) prepared with staining buffer, 1 μg/mL (four-fold concentration), was added into a 96-well plate (50 μL PVRIG-mFc working solution per well). […] The diluted antibodies were added to the well containing 50 μL of PVRIG-mFc. The plate was placed on a microplate shaker at 400 rpm for 1 minute to fully mix the antibodies and PVRIG-mFc proteins, and then incubated at 4° C. for 30 minutes. After the incubation, the cell suspension prepared above (100 μL) was added into the wells, gently mixed with the pipette tip and incubated at 4° C. for 30 minutes. After the incubation, the cells were washed twice with staining buffer (200 μL per well) and centrifuged at 350×g for 5 minutes to discard the supernatant. The PE goat anti-mouse IgG Fc antibody (Biolegend, 405337) was diluted 250 times with staining buffer, added into the washed wells (100 μL per well), mixed well, and stained at 4° C. for 30 minutes. After staining, the cells were washed twice with staining buffer, finally resuspended with 200 μL staining buffer and analyzed by flow cytometry (BD, Canto II). The weaker the fluorescence signal, the stronger the ability of the antibodies blocks the binding of CHO-K1 human CD112 cells to the PVRIG-mFc protein. An antibody binding curve was drawn with concentration of antibodies as the abscissa and the corresponding Mean Fluorescence Intensity (MFI) as the ordinate. The IC50 value of the antibodies and the AUC value of the binding curve were calculated by using a Four Parameter Logistic Fit (GraphPadPrism9). The smaller the IC50 value and AUC value, the stronger the ability of the antibodies competes with CHO-K1-CD112 cells to bind to human PVRIG-mFc protein. […] […] The smaller the percentage value, the stronger the blocking ability of the antibodies.

[3] = molecular target: T1, human PVRIG-his (AcroBiosystems, Cat …); test: competition ELISA, PVRIG-His coated, competitor human PVRL2-mFc
Procedure: The ELISA plate was pre-coated with 100 μL/well of 0.5 μg/mL human PVRIG-his protein (AcroBiosystems, Cat NO. PVG-H52H4). The tested anti-PVRIG antibodies were diluted from the highest concentration of 16 nM (two-fold concentration). The diluted antibodies were mixed with 18 ng/ml human PVRL2-mFc (AcroBiosystems, Cat NO. CD2-H5257) in equal volume, added into the plate (100 μL/well), and incubated with shaking at room temperature for 2.0 hours. […] A HRP substrate, TMB (Thermo, Cat NO. 34029) was added into wells after washing the plate again for color development. After adding a termination solution to terminate the reaction, the absorbance value was read by a microplate reader (MD i3×). An inhibiting curve was drawn with concentration of antibodies as the abscissa and the corresponding OD value as the ordinate. The IC50 value was calculated by using a Four Parameter Logistic Fit (GraphPadPrism9). The smaller the IC50 value, the stronger the ability of the antibodies inhibits the binding between PVRIG and PVRL2. The positive and negative controls are the same as in Example 8.

[4] = molecular target: T3, Fusion protein of extracellular domain of human TIGIT and His-tag (human TIGIT ECD-his) (human); test: BIAcore; KD ratio to TIGIT-CHI-006
T3 chain: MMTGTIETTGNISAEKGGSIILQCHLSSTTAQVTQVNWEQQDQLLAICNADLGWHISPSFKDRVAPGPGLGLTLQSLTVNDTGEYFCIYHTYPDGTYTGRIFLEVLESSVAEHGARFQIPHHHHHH

[5] = molecular target: T4, Full-length human TIGIT on CHO-K1 cells (CHO-K1 human TIGIT) (human, UniProt Q495A1 22-244); test: cell binding, CHO-K1 human TIGIT high expression strain
T4 construct: NCBI XP_024309156.1; the entry includes the signal peptide (limits not recoverable); The strain (high, medium, low) is named under assay; also called high expression strain 1D2; medium expression strain 2D10
T4 sequence: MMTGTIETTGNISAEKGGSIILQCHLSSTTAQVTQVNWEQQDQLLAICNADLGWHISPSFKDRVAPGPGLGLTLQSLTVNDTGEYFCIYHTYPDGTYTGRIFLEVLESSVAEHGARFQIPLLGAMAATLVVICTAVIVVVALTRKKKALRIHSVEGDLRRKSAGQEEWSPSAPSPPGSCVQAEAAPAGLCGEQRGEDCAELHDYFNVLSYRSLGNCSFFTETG
Procedure, shortened: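 Binding was measured by flow cytometry after a 60-minute, 4° C incubation of the antibodies with 2×10⁵ CHO-K1 cells displaying full-length human or cynomolgus monkey TIGIT. Antibody titration: 12 points, threefold serial dilution from 80 nM, in 1% BSA-PBS.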

[6] = molecular target: T3, Fusion protein of extracellular domain …; test: BIAcore
[7] = molecular target: T5, Fusion protein of extracellular domain of human TIGIT and mouse IgG2a Fc fragment (human TIGIT ECD-mFc) (human); test: ELISA, human TIGIT ECD-mFc
T5 construct: The entry includes the signal peptide (limits not recoverable) and the mouse IgG2a Fc
T5 chain: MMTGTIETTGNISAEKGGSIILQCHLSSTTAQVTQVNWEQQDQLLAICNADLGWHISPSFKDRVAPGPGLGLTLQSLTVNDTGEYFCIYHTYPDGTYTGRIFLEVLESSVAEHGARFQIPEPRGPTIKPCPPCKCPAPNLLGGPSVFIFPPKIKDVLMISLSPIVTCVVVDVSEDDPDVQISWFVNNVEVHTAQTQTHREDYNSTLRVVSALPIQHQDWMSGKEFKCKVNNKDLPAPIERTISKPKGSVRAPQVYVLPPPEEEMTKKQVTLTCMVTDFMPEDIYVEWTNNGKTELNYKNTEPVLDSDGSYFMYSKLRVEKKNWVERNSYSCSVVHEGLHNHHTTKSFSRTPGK
Procedure, shortened: (§1)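 Plates blocked with 5% skim milk-PBS at 37° C for 2-4 h. Test antibodies applied as a 12-point 3-fold series from 13 nM for 1.5-2 h at 37° C. Read-out: HRP secondary (1:5000, 1 h, 37° C), TMB colour for 7-10 min at room temperature, acid stop, absorbance at OD450 nm.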

[8] = molecular target: T6, Fusion protein of extracellular domain of human TIGIT and human IgG1 Fc fragment (human TIGIT ECD-hFc) (human); test: blocking of TIGIT ECD-hFc binding to CHO-K1 CD155 cells
T6 construct: The entry includes the signal peptide (limits not recoverable) and the human IgG1 Fc
Procedure, shortened: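 IC50 values come from inhibition curves in a cell-based ELISA using CHO-K1 CD155 cells. Antibodies premixed for 0.5 h with human TIGIT ECD-hFc (working concentration 30 ng/mL) were added to the fixed, blocked cells for 1.5-2 h at 37° C. Bound TIGIT was then detected with HRP secondary antibody and TMB at OD450 nm.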

[9] = molecular target: T7, Full-length cynomolgus monkey TIGIT on CHO-K1 cells (CHO-K1 cynomolgus monkey TIGIT) (cynomolgus monkey); test: cell binding, CHO-K1 cynomolgus monkey TIGIT
T7 construct: NCBI XP_015300911.1
Procedure: The collected cells were washed once with PBS (Hyclone, CAT #SH30256), resuspended to 2×10⁵/50 μL with 1% BSA-PBS. The antibodies were diluted to 80 nM with 1% BSA-PBS (diluted by 3-fold serial dilution for 12 concentration points). The 50 μL cells were then mixed with 50 μL diluted antibodies, and then incubated at 4° C. for 60 minutes. […] After washing twice with PBS, the cell samples were resuspended with 1% BSA-PBS, 100 μL/well and then analyzed by flow cytometry (BD, Canto II). […] [0298] (c) The effect of anti-TIGIT chimeric antibodies blocking the interaction between Bio-CD155-His and CHO-K1 human TIGIT high expression cell strains detected by FACS
The affinity of the above humanized antibodies with human TIGIT ECD-His is detected by BIAcore, and with reference to the methods of Example 4 (a), (b), and (d), the binding activity of the above humanized antibodies to human TIGIT ECD-mFc, CHO-K1 human TIGIT, CHO-K1 cynomolgus monkey TIGIT and cynomolgus monkey TIGIT ECD-mFc, and the effect of the humanized antibodies blocking the binding between human TIGIT ECD-mFc and CHO-K1 CD155 are detected, the results are shown in Table 18.

[10] = molecular target: T8, Fusion protein of extracellular domain of cynomolgus monkey TIGIT and mouse IgG2a Fc fragment (cynomolgus … (cynomolgus monkey)); test: ELISA, cynomolgus monkey TIGIT ECD-mFc
T8 construct: The entry includes the signal peptide (limits not recoverable) and the mouse IgG2a Fc
Procedure, shortened: as §1

T6 sequence (chain, as listed by the source limits assumed): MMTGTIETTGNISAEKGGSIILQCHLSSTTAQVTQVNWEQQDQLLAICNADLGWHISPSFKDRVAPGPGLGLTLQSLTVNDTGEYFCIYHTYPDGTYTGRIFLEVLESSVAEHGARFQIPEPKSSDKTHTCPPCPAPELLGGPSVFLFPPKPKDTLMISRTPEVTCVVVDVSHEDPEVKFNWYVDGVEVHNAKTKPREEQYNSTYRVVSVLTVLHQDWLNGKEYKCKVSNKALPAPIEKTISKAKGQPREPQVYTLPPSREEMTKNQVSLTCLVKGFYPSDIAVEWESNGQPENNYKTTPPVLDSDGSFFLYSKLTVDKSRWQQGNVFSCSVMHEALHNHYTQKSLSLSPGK
T7 sequence (chain, as listed by the source limits assumed): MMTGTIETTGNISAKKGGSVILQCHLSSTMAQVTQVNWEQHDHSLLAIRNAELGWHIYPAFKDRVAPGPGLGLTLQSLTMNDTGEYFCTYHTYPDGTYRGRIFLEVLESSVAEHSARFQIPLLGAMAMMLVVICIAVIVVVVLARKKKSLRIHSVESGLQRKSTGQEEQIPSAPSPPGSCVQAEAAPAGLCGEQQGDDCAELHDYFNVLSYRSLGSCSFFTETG

| Binder | Kd [1] | koff [1] | kon [1] | % AUC to COM701-hIgG4 [2] | % AUC to SRF813-hIgG1 [2] | % IC50 to COM701-hIgG4 [2] | % IC50 to SRF813-hIgG1 [2] | IC50 [3] | Fold change vs chimeric antibodies (KD) [4] | EC50 [5] | Kd [6] | koff [6] | kon [6] | EC50 [7] | IC50 [8] | binding result [9] | binding result [10] | EC50 [9] | EC50 [10] |
| --- | --- | --- | --- | --- | --- | --- | --- | --- | --- | --- | --- | --- | --- | --- | --- | --- | --- | --- | --- |
| B1 | 531 pM | 5.67e-05 s⁻¹ | 107000 M⁻¹ s⁻¹ | 101% | 86.6% | 89.6% | 93.7% | 62.1 pM | – | – | – | – | – | – | – | – | – | – | – |
| B2 | 283 pM | 3.97e-05 s⁻¹ | 141000 M⁻¹ s⁻¹ | 117% | 103% | 98.9% | 96.4% | 55.7 pM | – | – | – | – | – | – | – | – | – | – | – |
| B3 | 377 pM | 2.31e-05 s⁻¹ | 61200 M⁻¹ s⁻¹ | 77.2% | 77.3% | 54.1% | 72.4% | 208 pM | – | – | – | – | – | – | – | – | – | – | – |
| B4 | – | – | – | – | – | – | – | – | 34.4 fold | 59.6 pM | 2660 pM | 0.000384 s⁻¹ | 144000 M⁻¹ s⁻¹ | 18.5 pM | 1230 pM | no binding | no binding | – | – |
| B5 | – | – | – | – | – | – | – | – | 6.23 fold | 31.7 pM | 482 pM | 0.000176 s⁻¹ | 365000 M⁻¹ s⁻¹ | 9.5 pM | 682 pM | – | – | 6300 pM | 779 pM |
| B6 | 404 pM | 6.36e-05 s⁻¹ | 157000 M⁻¹ s⁻¹ | 58.9% | 58.9% | 48.1% | 64.4% | 255 pM | – | – | – | – | – | – | – | – | – | – | – |
